The text below walks through data of publication PMC3251568.

This assay deals with c-Abl (UniProt P00519). In words: anti-c-Abl IP, FLAG-PCNA western. The following applies: reference: wild-type FLAG-PCNA; sites Y211.

As for “PCNA (proliferating cell nuclear antigen) (from UniProt P12004) Y211F FLAG-PCNA”, the “binding against the reference” value is recorded as “weaker”.
